Measured values taken from paper PMC4503318 (Chemistry & biology, 2015).
Like-named read-outs stand apart in the source and are kept apart here.

Legend:
crystal structure [1] = target: the molecule itself; assay: crystal structure
crystal structure [2] = target: the molecule itself; assay: crystal structure; remark: listed apart in the source

Row | Protein | binding result (crystal structure [1]) | binding result (crystal structure [2])
1 | Plasmodium falciparum lysyl-tRNA synthetase (PfLysRS), residues 77-583 (enzyme) not shown | binds | –
2 | Pf-like human LysRS (human LysRS 70-584 with P300T, Q321V, T337S) (enzyme) not shown | – | binds
